# According to patent US20110165064A1:
# Where no end group is shown, it is not given here. [ ]: non-standard residue; d: D form. NMeE = CN[C@@H](CCC(=O)O)C(=O)O
# Target: clotted plasma proteins
# Test: binding to plasma clots; method not described, data not shown
binder,measurement,value
CREKA [CREKA peptide (cys-arg-glu-lys-ala)],Kd,6 µM
CR[NMeE]KA [CR(NMe)EKA],Kd,2.5 µM
